Test results: PMC10945755 (Proceedings of the National Academy of Sciences of the …, 2024)
Where two headings read alike, the source gives them in different places.

B10: GABARAP (natural protein)
chain: MKFVYKEEHPFEKRRSEGEKIRKKYPDRVPVIVEKAPKARIGDLDKKKYLVPSDLTVGQFYFLIRKRIHLRAEDALFFFVNNVIPPTSATMGQLYQEHHEEDFFLYIAYSDESVYGL

Tests used:
[1] = biological target: the molecule itself; assay: crystal structure
[2] = biological target: T1, TAX1BP1(1-237) (UniProt Q86VP1 1-237, labeled (label not named) in the spectral shift binding assay); assay: SEC
T1 sequence (Q86VP1 1-237): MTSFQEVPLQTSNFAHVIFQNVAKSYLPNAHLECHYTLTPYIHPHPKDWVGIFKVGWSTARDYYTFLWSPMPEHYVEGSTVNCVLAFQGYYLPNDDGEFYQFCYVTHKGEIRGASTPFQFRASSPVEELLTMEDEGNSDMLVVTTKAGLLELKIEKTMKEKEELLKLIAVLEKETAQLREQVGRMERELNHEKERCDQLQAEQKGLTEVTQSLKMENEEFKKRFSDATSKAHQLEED

[3] = biological target: TAX1BP1(1-121) (UniProt Q86VP1 1-121, 15N-labeled in the NMR titrations); assay: ITC
Sequence of TAX1BP1(1-121) (Q86VP1 1-121): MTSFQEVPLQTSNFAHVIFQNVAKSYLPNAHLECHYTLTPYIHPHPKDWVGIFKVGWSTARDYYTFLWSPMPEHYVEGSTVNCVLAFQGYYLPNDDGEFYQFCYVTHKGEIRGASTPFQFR

[4] = biological target: the molecule itself; assay: AUC
[5] = biological target: T1, TAX1BP1(1-237); assay: spectral shift binding assay
[6] = biological target: T2, Trx-TAX1BP1(1-237) (UniProt Q86VP1 1-237); assay: AUC
T2 sequence (Q86VP1 1-237): as the sequence (Q86VP1 1-237) above

[7] = biological target: T1, TAX1BP1(1-237); assay: SEC; remark: listed apart in the source
[8] = biological target: T2, Trx-TAX1BP1(1-237); assay: SEC
[9] = biological target: Nano-RB1CC1(1286-1594) (UniProt Q8TDY2 1286-1594); assay: SEC
[10] = biological target: TAX1BP1(1-237)/RB1CC1(1286-1594) complex (Trx-TAX1BP1(1-237) with Nano-RB1CC1(1286-1594)) (UniProt Q86VP1 1-237; Q8TDY2 1286-1594); assay: SEC
Sequence of TAX1BP1(1-237)/RB1CC1(1286-1594) complex (Trx-TAX1BP1(1-237) with Nano-RB1CC1(1286-1594)) (Q86VP1 1-237, one chain of several): as the sequence (Q86VP1 1-237) above

[11] = biological target: TAX1BP1(1-237)/RB1CC1(1286-1594) R1375A (UniProt Q86VP1 1-237; Q8TDY2 1286-1594, R1375A); assay: SEC
Sequence of TAX1BP1(1-237)/RB1CC1(1286-1594) R1375A (Q86VP1 1-237, stated change not applied, one chain of several): as the sequence (Q86VP1 1-237) above

[12] = biological target: B10; assay: ITC
[13] = biological target: GABARAPL1 (UniProt Q9H0R8 1-117); assay: ITC
Sequence of GABARAPL1 (Q9H0R8 whole entry): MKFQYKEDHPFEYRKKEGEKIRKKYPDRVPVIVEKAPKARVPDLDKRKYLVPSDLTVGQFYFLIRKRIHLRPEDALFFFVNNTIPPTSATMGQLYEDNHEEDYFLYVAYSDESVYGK

[14] = biological target: GABARAPL2 (UniProt P60520 1-117); assay: SEC
Sequence of GABARAPL2 (P60520 whole entry): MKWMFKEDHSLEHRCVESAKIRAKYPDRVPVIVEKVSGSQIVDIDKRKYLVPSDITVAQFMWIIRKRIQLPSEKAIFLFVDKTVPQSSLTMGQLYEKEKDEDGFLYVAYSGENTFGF

[15] = biological target: TAX1BP1(1-237)/RB1CC1(1286-1395) complex (UniProt Q86VP1 1-237; Q8TDY2 1286-1395); assay: SEC
Sequence of TAX1BP1(1-237)/RB1CC1(1286-1395) complex (Q86VP1 1-237, one chain of several): as the sequence (Q86VP1 1-237) above

[16] = biological target: TAX1BP1(1-237)/NAP1(1-75)/RB1CC1(1286-1594) ternary complex (UniProt Q86VP1 1-237; Q9H6S1 1-75; Q8TDY2 1286-1594); assay: SEC
Sequence of TAX1BP1(1-237)/NAP1(1-75)/RB1CC1(1286-1594) ternary complex (Q86VP1 1-237, one chain of several): as the sequence (Q86VP1 1-237) above

B1: RB1CC1(1343-1395) (domain or fragment, UniProt Q8TDY2 1343-1395, looked up)
chain: KENIINDLSDKLKSTMQQQERDKDLIESLSEDRARLLEEKKKLEEEVSKLRSS
[1]
  stoichiometry N: 2

B2: RB1CC1(1396-1594) (domain or fragment, UniProt Q8TDY2 1396-1594, looked up)
chain: SFVPSPYVATAPELYGACAPELPGESDRSAVETADEGRVDSAMETSMMSVQENIHMLSEEKQRIMLLERTLQLKEEENKRLNQRLMSQSMSSVSSRHSEKIAIRDFQVGDLVLIILDERHDNYVLFTVSPTLYFLHSESLPALDLKPGEGASGASRRPWVLGKVMEKEYCQAKKAQNRFKVPLGTKFYRVKAVSWNKKV
[2]
  binding result: binds

B3: RB1CC1(1286-1395) (domain or fragment, UniProt Q8TDY2 1286-1395, looked up)
chain: SLVAELQEKLQEEKAKFLEQLEEQEKRKNEEMQNVRTSLIAEQQTNFNTVLTREKMRKENIINDLSDKLKSTMQQQERDKDLIESLSEDRARLLEEKKKLEEEVSKLRSS
[3]
  Kd: ~4.91 µM
[4]
  stoichiometry N: 2
[5]
  Kd: ~1.13 µM

B4: RB1CC1(1450-1594) (domain or fragment, UniProt Q8TDY2 1450-1594, looked up)
chain: HMLSEEKQRIMLLERTLQLKEEENKRLNQRLMSQSMSSVSSRHSEKIAIRDFQVGDLVLIILDERHDNYVLFTVSPTLYFLHSESLPALDLKPGEGASGASRRPWVLGKVMEKEYCQAKKAQNRFKVPLGTKFYRVKAVSWNKKV
[5]
  Kd: > 136 µM

B5: NAP1(33-75) (domain or fragment, UniProt Q9H6S1 33-75, looked up)
chain: ESVASHFALVTAYEDIKKRLKDSEKENSLLKKRIRFLEEKLIA
[6]
  binding result: binds
[7]
  binding result: binds

B6: Trx-NAP1(1-75) (domain or fragment, UniProt Q9H6S1 1-75, looked up)
chain: MDALVEDDICILNHEKAHKRDTVTPVSIYSGDESVASHFALVTAYEDIKKRLKDSEKENSLLKKRIRFLEEKLIA
[8]
  binding result: binds
[9]
  binding result: binds
[10]
  binding result: binds

B7: NAP1(1-75) (domain or fragment, UniProt Q9H6S1 1-75, looked up)
chain: MDALVEDDICILNHEKAHKRDTVTPVSIYSGDESVASHFALVTAYEDIKKRLKDSEKENSLLKKRIRFLEEKLIA
[11]
  binding result: binds

B8: TAX1BP1(123-151) (domain or fragment, UniProt Q86VP1 123-151, looked up)
chain: SSPVEELLTMEDEGNSDMLVVTTKAGLLE
[12]
  Kd: 4.07 µM
[13]
  Kd: 9.54 µM
[14]
  binding result: binds

B9: TAX1BP1(133-151) (domain or fragment, UniProt Q86VP1 133-151, looked up)
chain: EDEGNSDMLVVTTKAGLLE
[12]
  binding result: binds

## B10
[2]
  binding result: binds
[15]
  binding result: binds
[16]
  binding result: binds
